Results on 84 variants are retold here after the RNAGym collection of RNA variant scans (doi:10.1093/molbev/msab373).

First the molecules themselves.
B1: Azoarcus group I ribozyme (parent)
chain: GUGCCUUGCGCCGGGAAACCACGCAAGGGAUGGUGUCAAAUUCGGCGAAACCUAAGCGCCCGCCCGGGCGUAUGGCAACGCCGAGCCAAGCUUCGGCGCCUGCGCCGAUGAAGGUGUAGAGACUAGACGGCACCCACCUAAGGCAAACGCUAUGGUGAAGGCAUAGUCCAGGGAGUGGCGAAAGUCACACAAACCGG

The series covers variants of B1. The experiment in a line: reverse-splicing fitness (ratio to wild type); higher = more active; in vitro selection; Mg2+ level not given. In a few lines: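 An in vitro group I ribozyme library with randomized positions was T7-transcribed and gel-purified. In triplicate, 10 pmol RNA in EPPS pH 7.5 was reacted with 50 pmoles of a 30-nt RNA substrate for 1 h at 37 °C across several added MgCl2 levels (1–48 mM), then stopped with EDTA. Products were reverse transcribed from a substrate-complementary primer, PCR-amplified and sequenced (HiSeq 4000). Fitness is a variant's read proportion after selection over that before, normalised to wild type.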
As for C82G A111G A120U A145G C169U, the reverse-splicing fitness was determined as 0.00538.
Regarding C82G A111G A120U A145G C150U U176A, the reverse-splicing fitness came out at 0.0125.
As for C82G A111G A120U A145G C150U U176G, the reverse-splicing fitness was determined as 0.00429.
Next, C82G A111G A120U A145G C150U U176C: 0.0196; C82G A111G A120U C150U: 0.0348; C82G A111G A120U C150G: 0.00849.
To C82G A111G A120U C150A belongs 0.00949; to C82G A111G A145G C150A C169G U176C, 0.0258; to C82G A111G A145G C150A C169G U176A, 0.0196.
On to C82G A111G A145G C150A C169G U176G, for which the reverse-splicing fitness was found to be 0.006.
As to C82G A111G A145U C150G, the reverse-splicing fitness turned out to be 0.0338.
Next, C82G A111G A145U C150A: 0.0314.
To C82G A111G A145G C150U C169G U176G belongs 0.00635; to C82G A111G A145G C150U C169G U176A, 0.017; to C82G A111G A145G C150U C169G U176C, 0.0216.
Next, C82G A111G A120U C150G C169U U176A: 0.00421; C82G A111G A120U C150G C169U U176G: 0.00278; C82G A111G A120U C150G C169U U176C: 0.00723.
For the variant C82G A111G A145G C150G C169U, the reverse-splicing fitness was determined as 0.0102.
For the variant C82G A111G A145G C150G C169A, the reverse-splicing fitness came to 0.00978.
C82G A111G A145G C150G C169G: the reverse-splicing fitness was 0.00774.
As for C82G A111G A145G C150U U176A, the reverse-splicing fitness came to 0.174.
On to C82G A111G A145G C150U U176C, for which the reverse-splicing fitness is 0.213.
Next, C82G A111G A145G C150U U176G: 0.068; C82G A111G A145C C169U U176A: 0.0135; C82G A111G A145C C169U U176C: 0.0106.
Next, C82G A111G A145C C169U U176G: 0.00545; C82G A111G A145G C150A C169A U176A: 0.0234; C82G A111G A145G C150A C169A U176C: 0.0222.
C82G A111G A145G C150A C169A U176G: the reverse-splicing fitness turned out to be 0.00692.
To C82G A111G A120U A145U C150A U176C belongs 0.00553.
C82G A111G A120U A145U C150A U176G: the reverse-splicing fitness was 0.00244.
To C82G A111G A120U A145U C150A U176A belongs 0.00578; to C82G A111G A120U A145U C150G C169U U176G, 0.00239.
Next, C82G A111G A120U A145U C150G C169U U176C: 0.00309; C82G A111G A120U A145U C150G C169U U176A: 0.00283.
In the case of C82G A111G A120U C150A C169A U176C, the reverse-splicing fitness is 0.00424.
C82G A111G A120U C150A C169A U176A: the reverse-splicing fitness was 0.00549.
Consider C82G A111G A120U C150A C169A U176G, for which the reverse-splicing fitness came out at 0.00223.
To C82G A111G A120U C150U C169A U176A belongs 0.00519.
With C82G A111G A120U C150U C169A U176G, the reverse-splicing fitness was determined as 0.00204.
Next, C82G A111G A120U C150U C169A U176C: 0.00376; C82G A111G A145C C150A: 0.0192; C82G A111G A145C C150G: 0.0378.
For C82G A111G A145C C150U, the reverse-splicing fitness was determined as 0.0841.
On to C82G A111G A120U A145G C150U C169A U176A, for which the reverse-splicing fitness worked out at 0.00839.
For C82G A111G A120U A145G C150U C169A U176C, the reverse-splicing fitness was determined as 0.00519.
To C82G A111G A120U A145G C150U C169A U176G belongs 0.00254.
As to C82G A111G A120U C150A C169G U176C, the reverse-splicing fitness is 0.00399.
In the case of C82G A111G A120U C150A C169G U176A, the reverse-splicing fitness was determined as 0.00749.
In the case of C82G A111G A120U C150A C169G U176G, the reverse-splicing fitness is 0.00187.
To C82G A111G A145C C150A U176C belongs 0.0173; to C82G A111G A145C C150A U176G, 0.00955.
To C82G A111G A145C C150A U176A belongs 0.0205; to C82G A111G A145G C150A C169U, 0.0105; to C82G A111G A145G C150A C169G, 0.00938.
To C82G A111G A145G C150A C169A belongs 0.011; to C82G A111G A145G U176A, 0.25; to C82G A111G A145G U176C, 0.27.
Turning to C82G A111G A145G U176G, the reverse-splicing fitness stood at 0.0821.
To C82G A111G A120U A145U C150U C169U U176C belongs 0.00263; to C82G A111G A120U A145U C150U C169U U176G, 0.00196; to C82G A111G A120U A145U C150U C169U U176A, 0.00291.
Next, C82G A111G A120U A145U C150A C169G U176A: 0.00229.
Turning to C82G A111G A120U A145U C150A C169G U176C, the reverse-splicing fitness stood at 0.00301.
As for C82G A111G A120U A145U C150A C169G U176G, the reverse-splicing fitness worked out at 0.00181.
To C82G A111G A120U A145G C150G C169U belongs 0.00737; to C82G A111G A120U A145G C150G C169G, 0.00722; to C82G A111G A120U A145G C150G C169A, 0.00921.
Regarding C82G A111G A120U C150G C169G U176A, the reverse-splicing fitness is 0.00638.
Next, C82G A111G A120U C150G C169G U176G: 0.00263.
For C82G A111G A120U C150G C169G U176C, the reverse-splicing fitness is 0.00486.
Next, C82G A111G A120U C169U: 0.00572; C82G A111G A120U C169G: 0.00481.
To C82G A111G A120U C169A belongs 0.00418.
With C82G A111G A145U C150G C169U U176A, the reverse-splicing fitness stood at 0.00966.
Consider C82G A111G A145U C150G C169U U176G, for which the reverse-splicing fitness is 0.00577.
To C82G A111G A145U C150G C169U U176C belongs 0.016; to C82G A111G A120U A145U C150U, 0.04; to C82G A111G A120U A145U C150G, 0.00894.
Regarding C82G A111G A120U A145U C150A, the reverse-splicing fitness is 0.00764.
To C82G A111G A120U A145U belongs 0.0713; to C82G A111G A120U A145G C150U, 0.0498.
On to C82G A111G A120U A145U C150G U176C, for which the reverse-splicing fitness was 0.00556.
